Assay results: article PMC2253824, “The Human TPR Protein TTC4 Is a Putative Hsp90 Co-Chaperone Which Interacts with CDC6 and Shows Alterations in Transformed Cells” (PLoS ONE, 2008)
Where a chain is given by its changes, count along the chain named.

B1: human TTC4, two-hybrid fusion in pJG4.5 (natural protein, UniProt O95801 1-387, looked up)
chain: MEQPGQDPTSDDVMDSFLEKFQSQPYRGGFHEDQWEKEFEKVPLFMSRAPSEIDPRENPDLACLQSIIFDEERSPEEQAKTYKDEGNDYFKEKDYKKAVISYTEGLKKKCADPDLNAVLYTNRAAAQYYLGNFRSALNDVTAARKLKPCHLKAIIRGALCHLELKHFAEAVNWCDEGLQIDAKEKKLLEMRAKADKLKRIEQRDVRKANLKEKKERNQNEALLQAIKARNIRLSEAACEDEDSASEGLGELFLDGLSTENPHGARLSLDGQGRLSWPVLFLYPEYAQSDFISAFHEDSRFIDHLMVMFGETPSWDLEQKYCPDNLEVYFEDEDRAELYRVPAKSTLLQVLQHQRYFVKALTPAFLVCVGSSPFCKNFLRGRKVYQIR
notes: TTC4 (tetratricopeptide repeat protein 4), human; full length gene, insert amplified and cloned in the EcoR1 and Xho sites of pJG4.5; source: yeast two-hybrid fusion
B2: TTC4-201TG (67IM), two-hybrid fusion in pJG4.5 (natural protein, human, UniProt O95801 1-387, looked up)
chain: B1 chain with I67M
notes: TTC4, human, with a point mutation reported in melanoma samples, made by site-directed mutagenesis in TTC4 (pJG4.5); also called TTC4 codon 67 I to M; source: yeast two-hybrid fusion
B3: TTC4-125TA (42VD), two-hybrid fusion in pJG4.5 (natural protein, human, UniProt O95801 1-387, looked up)
chain: B1 chain with V42D
notes: TTC4, human, with a point mutation reported in melanoma samples, made by site-directed mutagenesis in TTC4 (pJG4.5); also called TTC4 codon 42 V to D; source: yeast two-hybrid fusion
B4: TTC4-651-TA (217NK), two-hybrid fusion in pJG4.5 (natural protein, human, UniProt O95801 1-387, looked up)
chain: B1 chain with N217K
notes: TTC4, human, with a point mutation reported in melanoma samples, made by site-directed mutagenesis in TTC4 (pJG4.5); also called TTC4 codon 217 N to K; source: yeast two-hybrid fusion
B5: TTC4-230AC (77EA), two-hybrid fusion in pJG4.5 (natural protein, human, UniProt O95801 1-387, looked up)
chain: B1 chain with E77A
notes: TTC4, human, with a point mutation reported in melanoma samples, made by site-directed mutagenesis in TTC4 (pJG4.5); also called TTC4 codon 77 E to A; source: yeast two-hybrid fusion

What follows are binders tested against T1, Drosophila Hsp90, two-hybrid fusion (Drosophila, UniProt P02828 1-717) (assay: two-hybrid; TTC4 with Drosophila proteins; data not shown). Conditions: partners not purified.
T1 construct: Hsp90 (Hsp83) of Drosophila; construct not described; Two-hybrid fusion; also called DmHsp90; source: yeast two-hybrid fusion
T1 sequence (P02828 whole entry, the tested form may be a part): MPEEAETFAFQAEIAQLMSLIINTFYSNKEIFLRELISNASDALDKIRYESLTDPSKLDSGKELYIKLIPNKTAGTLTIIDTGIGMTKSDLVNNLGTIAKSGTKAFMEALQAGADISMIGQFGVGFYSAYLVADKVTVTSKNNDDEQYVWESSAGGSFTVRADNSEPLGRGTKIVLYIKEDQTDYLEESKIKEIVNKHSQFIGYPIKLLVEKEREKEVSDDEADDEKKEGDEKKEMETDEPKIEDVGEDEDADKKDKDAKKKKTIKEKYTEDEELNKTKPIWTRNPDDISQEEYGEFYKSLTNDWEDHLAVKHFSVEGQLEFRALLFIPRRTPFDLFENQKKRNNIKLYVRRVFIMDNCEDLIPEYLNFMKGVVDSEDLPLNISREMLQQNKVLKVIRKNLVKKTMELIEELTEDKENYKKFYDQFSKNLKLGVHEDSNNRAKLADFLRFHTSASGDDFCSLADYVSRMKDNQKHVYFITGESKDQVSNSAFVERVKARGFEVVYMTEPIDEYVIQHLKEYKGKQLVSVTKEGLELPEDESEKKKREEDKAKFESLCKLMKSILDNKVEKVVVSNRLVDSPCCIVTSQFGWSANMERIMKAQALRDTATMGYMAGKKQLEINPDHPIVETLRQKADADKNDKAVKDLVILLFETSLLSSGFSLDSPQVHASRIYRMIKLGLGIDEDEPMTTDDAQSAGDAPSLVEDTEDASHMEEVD

Binder	two-hybrid strength relative to TTC4 with huHSP90 [%]
B1	50

What follows are binders tested against T2, Drosophila Cdc6, two-hybrid fusion (Drosophila, UniProt Q9VSM9 1-662) in the same assay as above. Conditions: partners not purified.
T2 construct: Cdc6 of Drosophila; construct not described; Two-hybrid fusion; also called DmCdc6; source: yeast two-hybrid fusion
T2 sequence (looked up): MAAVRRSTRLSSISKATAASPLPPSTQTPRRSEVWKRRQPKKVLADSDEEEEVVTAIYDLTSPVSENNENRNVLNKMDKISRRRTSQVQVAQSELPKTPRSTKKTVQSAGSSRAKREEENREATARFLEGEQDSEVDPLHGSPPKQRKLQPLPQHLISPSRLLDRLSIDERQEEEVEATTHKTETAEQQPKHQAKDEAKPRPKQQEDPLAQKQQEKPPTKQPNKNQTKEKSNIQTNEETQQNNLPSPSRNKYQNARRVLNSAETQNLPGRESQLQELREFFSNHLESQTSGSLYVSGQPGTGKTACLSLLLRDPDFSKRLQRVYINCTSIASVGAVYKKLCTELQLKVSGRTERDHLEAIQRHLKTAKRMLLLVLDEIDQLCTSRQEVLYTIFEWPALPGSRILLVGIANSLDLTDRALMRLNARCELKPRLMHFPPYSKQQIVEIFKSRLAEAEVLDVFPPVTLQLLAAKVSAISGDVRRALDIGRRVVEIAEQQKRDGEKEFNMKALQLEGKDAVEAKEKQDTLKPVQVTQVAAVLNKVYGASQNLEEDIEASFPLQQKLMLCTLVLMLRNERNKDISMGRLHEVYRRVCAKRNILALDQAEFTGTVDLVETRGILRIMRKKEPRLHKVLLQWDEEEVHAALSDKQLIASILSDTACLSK

Binder	two-hybrid strength relative to TTC4 with human CDC6 [%]
B1	50

Each binder was assayed against T3, human HSP90 protein 1 beta (HSPCB), two-hybrid fusion in pEG202 (human, UniProt P08238 1-724) (assay: two-hybrid; quantitative liquid beta-galactosidase assays; values as a percentage of the cdc6/TTC4 interaction). Conditions: partners not purified.
T3 construct: HSP90 protein 1 beta (HSPCB), human full length cDNA clone from Origene, cloned in the Not1 and Xho1 sites of pEG202; also called HuHSP90; huHSP90; source: yeast two-hybrid fusion
T3 sequence (P08238 whole entry, the tested form may be a part): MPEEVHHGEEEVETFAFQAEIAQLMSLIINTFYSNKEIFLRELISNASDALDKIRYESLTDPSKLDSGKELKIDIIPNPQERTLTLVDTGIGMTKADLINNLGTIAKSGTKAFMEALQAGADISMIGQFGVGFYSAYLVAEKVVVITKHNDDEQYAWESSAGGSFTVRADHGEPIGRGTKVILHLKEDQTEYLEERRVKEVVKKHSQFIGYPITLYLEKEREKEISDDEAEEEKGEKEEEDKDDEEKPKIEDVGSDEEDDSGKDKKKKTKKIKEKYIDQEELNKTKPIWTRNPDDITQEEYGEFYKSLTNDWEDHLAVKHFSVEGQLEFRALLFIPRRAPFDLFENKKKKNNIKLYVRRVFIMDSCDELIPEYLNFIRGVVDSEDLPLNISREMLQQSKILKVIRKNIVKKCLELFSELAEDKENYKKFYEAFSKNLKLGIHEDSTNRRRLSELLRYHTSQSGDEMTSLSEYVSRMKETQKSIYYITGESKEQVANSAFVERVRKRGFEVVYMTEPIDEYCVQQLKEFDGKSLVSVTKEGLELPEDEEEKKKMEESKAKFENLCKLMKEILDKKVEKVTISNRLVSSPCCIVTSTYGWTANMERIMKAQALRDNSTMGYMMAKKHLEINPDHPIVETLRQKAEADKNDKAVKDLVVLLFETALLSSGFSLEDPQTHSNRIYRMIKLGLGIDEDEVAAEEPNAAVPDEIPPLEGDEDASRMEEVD

Binder	two-hybrid beta-galactosidase, percentage of the cdc6/TTC4 interaction [%]
B1	100
B2	90
B3	80
B4	90
B5	75

Each binder was assayed against T4, human HSP70 protein 8 (HSPA8), two-hybrid fusion in pEG202 (human, UniProt P11142 1-646) in the same assay as above. Conditions: partners not purified.
T4 construct: HSP70 protein 8 (HSPA8), human full length cDNA clone from Origene, cloned in the BamH1 and Xho1 sites of pEG202; also called HuHSP70; source: yeast two-hybrid fusion
T4 sequence (P11142 whole entry, the tested form may be a part): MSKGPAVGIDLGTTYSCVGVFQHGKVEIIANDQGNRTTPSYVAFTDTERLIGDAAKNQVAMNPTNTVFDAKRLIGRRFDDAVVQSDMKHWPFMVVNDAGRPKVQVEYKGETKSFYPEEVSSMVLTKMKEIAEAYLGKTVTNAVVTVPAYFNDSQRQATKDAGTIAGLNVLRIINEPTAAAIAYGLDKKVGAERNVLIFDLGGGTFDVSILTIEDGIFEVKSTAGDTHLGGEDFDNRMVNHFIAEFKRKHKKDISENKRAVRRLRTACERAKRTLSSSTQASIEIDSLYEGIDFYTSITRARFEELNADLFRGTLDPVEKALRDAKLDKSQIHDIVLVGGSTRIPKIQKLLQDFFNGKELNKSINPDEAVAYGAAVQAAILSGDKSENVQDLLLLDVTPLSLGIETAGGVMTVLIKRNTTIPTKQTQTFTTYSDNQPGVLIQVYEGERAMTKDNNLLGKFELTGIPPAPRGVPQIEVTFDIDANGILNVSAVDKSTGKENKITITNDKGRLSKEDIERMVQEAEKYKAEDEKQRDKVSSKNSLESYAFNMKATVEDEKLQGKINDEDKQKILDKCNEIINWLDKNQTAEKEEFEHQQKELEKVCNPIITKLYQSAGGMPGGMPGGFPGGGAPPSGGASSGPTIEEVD

Binder	two-hybrid beta-galactosidase, percentage of the cdc6/TTC4 interaction [%]
B1	80
B2	70
B3	65
B4	70
B5	70

These binders were tested against T5, human CDC6, two-hybrid fusion in pEG202 (human, UniProt Q99741 1-560) in the same assay as above. Conditions: partners not purified.
T5 construct: CDC6, human; clone from A. Dutta, cloned in the BamH1 and Not1 sites of pEG202; also called HuCDC6; hCDC6; source: yeast two-hybrid fusion
T5 sequence (looked up): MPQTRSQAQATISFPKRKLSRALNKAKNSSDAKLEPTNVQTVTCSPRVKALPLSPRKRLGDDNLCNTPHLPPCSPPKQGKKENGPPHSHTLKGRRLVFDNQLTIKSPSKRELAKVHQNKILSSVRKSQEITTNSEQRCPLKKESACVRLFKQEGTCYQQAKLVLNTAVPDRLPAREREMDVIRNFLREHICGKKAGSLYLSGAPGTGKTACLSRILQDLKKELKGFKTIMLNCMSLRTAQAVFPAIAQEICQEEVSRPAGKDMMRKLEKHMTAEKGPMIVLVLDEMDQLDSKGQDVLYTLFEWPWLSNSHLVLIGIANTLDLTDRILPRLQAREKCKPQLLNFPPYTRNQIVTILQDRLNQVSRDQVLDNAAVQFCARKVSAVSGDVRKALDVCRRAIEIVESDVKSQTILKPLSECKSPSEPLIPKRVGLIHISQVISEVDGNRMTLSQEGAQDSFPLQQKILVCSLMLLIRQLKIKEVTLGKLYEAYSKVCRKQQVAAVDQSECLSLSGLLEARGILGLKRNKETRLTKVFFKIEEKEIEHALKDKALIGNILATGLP

Binder	two-hybrid beta-galactosidase, percentage of the cdc6/TTC4 interaction [%]
B1	100
B2	95
B3	95
B4	< 5
B5	< 5

Each binder was assayed against T6, human DNA polymerase alpha large subunit, two-hybrid fusion (human, UniProt P09884 1-1462) in the same assay as above. Conditions: partners not purified.
T6 construct: DNA polymerase alpha large (catalytic) subunit, human; Two-hybrid fusion; also called HDPa; source: yeast two-hybrid fusion
T6 sequence (looked up): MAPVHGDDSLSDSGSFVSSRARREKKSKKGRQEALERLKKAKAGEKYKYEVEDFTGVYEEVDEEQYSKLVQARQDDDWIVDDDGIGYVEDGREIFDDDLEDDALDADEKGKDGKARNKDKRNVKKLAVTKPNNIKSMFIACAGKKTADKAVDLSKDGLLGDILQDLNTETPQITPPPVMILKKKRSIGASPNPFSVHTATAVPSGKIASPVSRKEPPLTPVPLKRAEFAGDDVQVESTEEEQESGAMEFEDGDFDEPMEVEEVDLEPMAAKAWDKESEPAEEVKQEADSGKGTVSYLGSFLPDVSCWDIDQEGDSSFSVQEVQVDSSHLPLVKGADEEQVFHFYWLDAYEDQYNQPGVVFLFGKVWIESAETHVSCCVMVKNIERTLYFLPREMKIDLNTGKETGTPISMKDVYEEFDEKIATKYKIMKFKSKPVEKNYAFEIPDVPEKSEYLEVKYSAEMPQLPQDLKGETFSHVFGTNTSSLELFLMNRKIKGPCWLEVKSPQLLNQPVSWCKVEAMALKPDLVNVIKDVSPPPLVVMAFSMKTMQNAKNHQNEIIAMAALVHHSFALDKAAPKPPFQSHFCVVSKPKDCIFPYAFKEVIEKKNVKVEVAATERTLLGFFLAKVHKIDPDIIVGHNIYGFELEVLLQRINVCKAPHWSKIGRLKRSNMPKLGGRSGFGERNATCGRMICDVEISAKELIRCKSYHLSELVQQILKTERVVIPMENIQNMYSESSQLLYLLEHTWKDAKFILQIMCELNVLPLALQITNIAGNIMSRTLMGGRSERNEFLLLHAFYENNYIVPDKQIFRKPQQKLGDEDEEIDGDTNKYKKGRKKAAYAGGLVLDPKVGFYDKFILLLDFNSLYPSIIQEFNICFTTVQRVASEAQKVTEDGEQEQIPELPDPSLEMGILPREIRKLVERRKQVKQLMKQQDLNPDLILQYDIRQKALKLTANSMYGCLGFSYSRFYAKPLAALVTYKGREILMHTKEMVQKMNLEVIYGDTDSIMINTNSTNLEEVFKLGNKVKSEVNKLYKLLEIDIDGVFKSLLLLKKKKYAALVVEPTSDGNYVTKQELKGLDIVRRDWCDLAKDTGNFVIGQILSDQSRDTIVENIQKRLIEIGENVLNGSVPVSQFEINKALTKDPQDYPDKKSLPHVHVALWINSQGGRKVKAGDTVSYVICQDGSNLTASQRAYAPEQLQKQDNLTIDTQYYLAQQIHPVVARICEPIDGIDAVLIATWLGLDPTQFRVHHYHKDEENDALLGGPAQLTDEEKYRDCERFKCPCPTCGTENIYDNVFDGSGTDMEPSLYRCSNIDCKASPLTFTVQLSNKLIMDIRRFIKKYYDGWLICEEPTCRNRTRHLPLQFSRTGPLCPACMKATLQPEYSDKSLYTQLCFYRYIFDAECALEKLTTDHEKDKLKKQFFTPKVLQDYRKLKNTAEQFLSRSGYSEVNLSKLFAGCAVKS

Binder	two-hybrid beta-galactosidase, percentage of the cdc6/TTC4 interaction [%]
B1	< 5
